# Molecular target: Human FcγRII, His-tagged domain (R&D Systems, Cat # 1330-CD) (human) (UniProt P12318)
# Assay: SPR (Biacore 3000), His-tagged receptor captured by penta-His antibody on CM5 chip, antibody injected; steady-state RU relative to control
substance,measurement,value
Bapineuzumab (antibody),Relative Binding Capability (%),100%

# Source: patent US9644025
